One protein from paper PMC5432616 (The Protein Journal, 2017) can be followed below.

The data set deals with the molecule itself. Description: dynamic light scattering; Zetasizer Nano S, 6 μM enzyme, 50 mM Hepes pH 7.4, 0.5 M NaCl, 25 °C; also with L-Orn and α-KG at saturating concentrations.

B1: R217A variant of human ornithine δ-aminotransferase (enzyme, UniProt P04181 26-439, looked up)
chain: TSVATKKTVQGPPTSDDIFEREYKYGAHNYHPLPVALERGKGIYLWDVEGRKYFDFLSSYSAVNQGHCHPKIVNALKSQVDKLTLTSRAFYNNVLGEYEEYITKLFNYHKVLPMNTGVEAGETACKLARKWGYTVKGIQKYKAKIVFAAGNFWGRTLSAISSSTDPTSYDGFGPFMPGFDIIPYNDLPALEAALQDPNVAAFMVEPIQGEAGVVVPDPGYLMGVRELCTRHQVLFIADEIQTGLARTGRWLAVDYENVRPDIVLLGKALSGGLYPVSAVLCDDDIMLTIKPGEHGSTYGGNPLGCRVAIAALEVLEEENLAENADKLGIILRNELMKLPSDVVTAVRGKGLLNAIVIKETKDWDAWKVCLRLRDNGLLAKPTHGDIIRFAPPLVIKEDELRESIEIINKTILSF
notes: the protein as purified is reconstituted with PLP, so probably the holo-form (PLP on Lys292); A start Met from the NdeI site probably precedes T26; also called R217A mutant; dimeric variant R217A; source: E. coli BL21(DE3)pLysS, purified (DEAE Sepharose, Superdex 200)
Take B1: the “stoichiometry N” value came to 2.
